Measured values: patent US20220242939A1 (BIOARCTIC, published 2022)
Residue numbers refer to the chain shown, from its start. Non-standard residues stand in square brackets, D forms with d. No end group written: not given here. Ahx = NCCCCCC(=O)O

Key:
[1] = target: T1, G200 N-terminal neo-epitope peptide GQPLQE-Acp-C (SEQ ID NO:50) conjugated to BSA (human, not fully specified (residue 8); printed as GQPLQE-Acp-C; also: C-terminal Cys conjugated to BSA carrier); experiment: second direct ELISA, G200-BSA peptide coated at 1 µg/ml
T1 construct: also called G200-BSA peptide; G200-peptide
T1 peptide: GQPLQE[Ahx]C
Procedure: (§1) The screening was performed according to standard ELISA protocols. Briefly, 1 μg/ml solutions of BSA-conjugated neo-epitope peptides, recombinant C-terminal ApoE fragment, negative control peptide and full-length ApoE were prepared by dilution in PBS. 50 μl/well were added to an ELISA half-area 96 well microtiter plate, the plate was sealed with adhesive sealer and incubated over night at 4° C. After discarding the solution, the plates were blocked with 150 μl/well of protein-free blocking solution (Pierce) for 1 h at room temperature with shake (900 rpm). The plates were washed four times with washing buffer containing 0.28 mM NaH₂PO₄, 2.5 mM Na₂HPO₄, 150 mM NaCl, 0.1% TWEEN®-20 and 0.0075% Kathon CG. Generated recombinant antibodies of interest were serially diluted 3-fold with a starting dilution at 0.5 μg/ml (mixed 1:1 with dilution buffer: PBS with 0.1% BSA and 0.05% TWEEN®-20). An anti-ApoE C-terminal antibody was used as a reference antibody (ApoE E-8 mouse monoclonal, cat. no. sc-393302; Santa Cruz Biotechnology). 50 μl/well were added into the ELISA plates and incubated for 2 h at room temperature with shake (900 rpm). The plates were washed four times as described previously. […] After another wash (as described previously), 50 μl/well of K-Blue® aqueous substrate (Neogen) were added, and the reaction was stopped after 5-15 min with 50 μl/well of 0.5 M […]. The optical density at 450 nm was read using an ELISA reader (Tecan). The optical density was plotted against the antibody concentration to generate concentration-response curves (FIG. 16).
(§2) These were added in the same molarity (0.1 μM) to provide an equal number of molecules available for binding by the antibodies (BSA-coupled peptides were coated at 1 μg/ml as before).

[2] = target: T2, full-length ApoE in human brain extract from Alzheimer's disease patients (human, UniProt P02649 19-317); experiment: Western blot of AD brain RIPA 2% SDS extract; recombinant antibody at 2 ug/ml as primary antibody
T2 construct: mature; Endogenous protein on Western blot or in solution (IP); also called ApoE full-length protein
T2 sequence (P02649 19-317): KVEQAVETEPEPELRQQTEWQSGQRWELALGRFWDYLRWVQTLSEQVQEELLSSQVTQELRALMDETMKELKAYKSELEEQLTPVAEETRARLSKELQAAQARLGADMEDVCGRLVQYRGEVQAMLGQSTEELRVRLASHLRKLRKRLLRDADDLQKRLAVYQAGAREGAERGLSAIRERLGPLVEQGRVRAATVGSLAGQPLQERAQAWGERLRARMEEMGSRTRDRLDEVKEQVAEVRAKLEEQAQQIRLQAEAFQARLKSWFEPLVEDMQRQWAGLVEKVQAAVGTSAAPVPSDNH

[3] = target: T3, recombinant C-terminal ApoE fragment G200-HIS (ApoE-G200-H299-10xHIS) (human, UniProt P02649 218-317); experiment: SPR (Biacore 8K), G200-HIS amine-coupled on CM5, antibody as analyte, bivalent analyte fit (kd1)
T3 construct: also called G200-HIS fragment
T3 sequence (P02649 other isoform, or with tags, fused parts or gaps limits assumed): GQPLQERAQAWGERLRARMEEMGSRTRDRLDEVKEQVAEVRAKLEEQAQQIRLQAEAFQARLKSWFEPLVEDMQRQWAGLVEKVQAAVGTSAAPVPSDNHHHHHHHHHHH

[4] = target: T3, recombinant C-terminal ApoE fragment …; experiment: SPR (Biacore 8K), G200-HIS amine-coupled on CM5, antibody as analyte, bivalent analyte fit (ka1)
[5] = target: T3, recombinant C-terminal ApoE fragment …; experiment: second direct ELISA, G200-HIS coated at 0.1 µM
Procedure: as §1, §2

[6] = target: T4, L198 N-terminal neo-epitope peptide LAGQPL-Acp-C (SEQ ID NO:52) conjugated to BSA (human, not fully specified (residue 8); printed as LAGQPL-Acp-C; also: C-terminal Cys conjugated to BSA carrier); experiment: direct ELISA, target coated at 1 ug/ml, antibody in 3-fold dilutions from 500 ng/ml, OD 450 nm
T4 construct: BSA carrier; also called L198-BSA peptide
T4 peptide: LAGQPL[Ahx]C
Procedure: (§3) Selectivity evaluation of recombinant antibodies by direct ELISA: The direct ELISA described below was used to evaluate the binding selectivity of the recombinant antibodies produced in Example 11.
as §1, with “(Tecan).” for “(Tecan). The optical density was plotted against the antibody concentration to generate concentration-response curves (FIG. 16).”

[7] = target: T5, negative control peptide AATVGSLAGQPLQER-Acp-C (SEQ ID NO:53) conjugated to BSA (human, not fully specified (residue 17); printed as AATVGSLAGQPLQER-Acp-C; also: C-terminal Cys conjugated to BSA carrier); experiment: as above
T5 construct: BSA carrier; also called 192-206 BSA-conjugated peptide
T5 peptide: AATVGSLAGQPLQER[Ahx]C
Procedure: as §3
as §1, with “(Tecan).” for “(Tecan). The optical density was plotted against the antibody concentration to generate concentration-response curves (FIG. 16).”

B1: 23D5, recombinant IgG2c antibody (antibody, V domains shown)
VH: EVQLVESGGGLVKPGGSLKLSCSASGFTFSRYAMSWVRQSPEKRLEWVAEINSGGSYSFYSDTVTGRFTISRDNAKNTLFLEMSSLRSEDTAIYYCARQLSGTDYYGTDYWGQGTSVTVSS
VL: DVLMTQTPLSLPVSHGDQASISCRSSQSLLYSNGNTYLEWYLQKPGQSPKLLIYKVSNRFSGVPDRFSGSGSGTDFTLKISRVEAEDLGVYYCFQGSHVPYTFGGGTKLEIK
EC50 [1]: 11.6 ng/mL | binding result [2]: no binding (tested: 2 ug/ml (text)) | koff [3]: 0.0105 s⁻¹ | kon [4]: 260000 M⁻¹ s⁻¹ | EC50 [5]: 0.0101 µg/mL | binding result [6]: no binding (tested: 500 ng/ml) | binding result [7]: no binding (tested: 500 ng/ml)

B2: 28F2, recombinant IgG2c antibody (antibody, V domains shown)
VH: QIQLVQSGPDLKKPGETVKISCKASGYTFTNYAMHWMKQAPGKALKWMGWINTYTGEPTFADDFKGRFAFSLETSASTAYLQINSLKNEDMATYFCAREGYYDRSHYFDYWGQGTTLTVSS
VL: B1 VL with H15L, Q27L, L30V, Y31H, S32G, N33D, F94L, V99I, Y101F, G105S
EC50 [1]: 7.2 ng/mL | binding result [2]: no binding (tested: 2 ug/ml (text)) | koff [3]: 0.0035 s⁻¹ | kon [4]: 4.98e+06 M⁻¹ s⁻¹ | EC50 [5]: 0.0215 µg/mL | binding result [6]: no binding (tested: 500 ng/ml) | binding result [7]: no binding (tested: 500 ng/ml)

B3: 7C7, recombinant IgG2c antibody (antibody, V domains shown)
VH: EVQLVESGGGLVKPGGSLRLSCAASGFTFSSFAMSWVRQSPERRLEWVAEISRGGGYAFYSDTVTGRFTISRDNARNTLFLEMGSLRSEDTAMYYCSRQLTGTDYYAMDYWGQGTSVTVSS
VL: B1 VL with M4L, P12F, H15L, L29I, L30V, S32T, H98Q, I111L
EC50 [1]: 13 ng/mL | binding result [2]: no binding (tested: 2 ug/ml (text)) | koff [3]: 0.0029 s⁻¹ | kon [4]: 2.88e+06 M⁻¹ s⁻¹ | EC50 [5]: 0.0181 µg/mL | binding result [6]: no binding (tested: 500 ng/ml) | binding result [7]: no binding (tested: 500 ng/ml)

B4: 17G4, recombinant IgG2c antibody (antibody, V domains shown)
VH: B1 VH with S101T
VL: B1 VL
EC50 [1]: 5.1 ng/mL | binding result [2]: no binding (tested: 2 ug/ml (text)) | koff [3]: 0.0024 s⁻¹ | kon [4]: 8.73e+06 M⁻¹ s⁻¹ | EC50 [5]: 0.0079 µg/mL | binding result [6]: no binding (tested: 500 ng/ml) | binding result [7]: no binding (tested: 500 ng/ml)

B5: 4E6, recombinant IgG2c antibody (antibody, V domains shown)
VH: EVQLVESGGDLVKPGGSLKLSCAASGFTFSSYAMSWVRQSPEKRLEWVAEISGSGSRDHYTDSVTGRFTVSRDNAKNTLYLEMSSLRSEDTAIYYCARQLTGTDYYGTDYWGQGTSVTVSS
VL: B1 VL with T7I, H15L, L29I, L30V, K44R, V99L
notes: also called recombinant anti-G200 antibody 4E6
EC50 [1]: 6.9 ng/mL | binding result [2]: no binding (tested: 2 ug/ml (text)) | koff [3]: 0.006 s⁻¹ | kon [4]: 8.15e+07 M⁻¹ s⁻¹ | EC50 [5]: 0.0095 µg/mL | binding result [6]: no binding (tested: 500 ng/ml) | binding result [7]: no binding (tested: 500 ng/ml)

B6: 7B10, recombinant IgG2c antibody (antibody, V domains shown)
VH: AVQLVESGGGLVKPGRSLKLSCAASGFTFSSYAMSWVRQFPDKRLDWVAEISSGGGSTNYLDTVTGRFTISRDNAKNTLYLEMNSLRSEDTAMYYCARQLVGTDYYGTDYWGQGTSVTVSS
VL: B1 VL with H15L, S28N, L29I, L30V
notes: also called 7610
EC50 [1]: 7.3 ng/mL | binding result [2]: no binding (tested: 2 ug/ml (text)) | koff [3]: 0.0038 s⁻¹ | kon [4]: 1.2e+06 M⁻¹ s⁻¹ | EC50 [5]: 0.0107 µg/mL | binding result [6]: no binding (tested: 500 ng/ml) | binding result [7]: no binding (tested: 500 ng/ml)
